From patent publication US20220324962A1 come the findings set out here.

Assay [1] has as its target full-length human MISRII (human) (UniProt Q16671). Kind of assay: cell-based or functional assay.
The target in assay [2] is active recombinant MIS (LRMIS) (human) (UniProt P03971). Kind of assay: cell-based or functional assay.
The target is the same in assay [3]. The experiment in a line: sandwich ELISA: recombinant AMH (25 nM) captured on coated polyclonal anti-AMH, B10 titrated 666-0 nM, detected with anti-mouse Fc HRP. In general terms: An ELISA detects its analyte on a solid surface through an enzyme-linked reagent.

Chain of UniProt P03971 (P03971 26-560): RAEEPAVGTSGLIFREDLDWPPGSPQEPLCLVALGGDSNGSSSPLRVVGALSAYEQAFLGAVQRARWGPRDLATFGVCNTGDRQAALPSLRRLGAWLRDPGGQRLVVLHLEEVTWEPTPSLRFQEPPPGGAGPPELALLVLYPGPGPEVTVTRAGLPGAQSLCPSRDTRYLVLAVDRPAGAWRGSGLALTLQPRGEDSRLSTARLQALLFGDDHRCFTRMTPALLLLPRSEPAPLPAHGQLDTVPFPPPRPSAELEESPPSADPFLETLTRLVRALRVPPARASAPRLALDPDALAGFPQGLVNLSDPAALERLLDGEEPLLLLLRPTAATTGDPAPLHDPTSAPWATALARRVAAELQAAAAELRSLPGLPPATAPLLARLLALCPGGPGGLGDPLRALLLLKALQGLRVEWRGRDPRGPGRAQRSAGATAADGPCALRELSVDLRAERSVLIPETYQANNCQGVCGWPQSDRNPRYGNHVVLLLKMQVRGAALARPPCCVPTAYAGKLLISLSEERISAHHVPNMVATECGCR
Chain of UniProt Q16671 (Q16671 18-573): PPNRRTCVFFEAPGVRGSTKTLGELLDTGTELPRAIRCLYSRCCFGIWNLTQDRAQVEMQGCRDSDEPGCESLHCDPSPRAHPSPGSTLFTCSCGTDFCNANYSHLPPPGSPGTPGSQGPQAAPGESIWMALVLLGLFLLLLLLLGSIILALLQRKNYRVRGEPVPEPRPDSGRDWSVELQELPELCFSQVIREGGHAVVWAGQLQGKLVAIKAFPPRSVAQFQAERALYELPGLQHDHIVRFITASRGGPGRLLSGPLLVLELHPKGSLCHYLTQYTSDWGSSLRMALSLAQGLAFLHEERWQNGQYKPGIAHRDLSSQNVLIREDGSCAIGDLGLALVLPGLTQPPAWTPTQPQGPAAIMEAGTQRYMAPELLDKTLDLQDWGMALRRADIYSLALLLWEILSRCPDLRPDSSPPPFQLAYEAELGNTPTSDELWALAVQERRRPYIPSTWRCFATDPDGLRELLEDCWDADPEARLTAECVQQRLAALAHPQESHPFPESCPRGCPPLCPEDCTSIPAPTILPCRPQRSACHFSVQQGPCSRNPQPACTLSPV

In assay [1], “active recombinant MIS (LRMIS) (from UniProt P03971 26-560) (ligand)” had an Apoptosis, evaluated by measuring caspase-3/7 activity (COV434-MISRII cells) of 12.5 nM and an Apoptosis, evaluated by measuring caspase-3/7 activity (SKOV3-MISRII cells) of 6.3 nM.

B1: anti-MIS antibody B10 (antibody, V domains shown)
VH: EVQLVESGGSLVKPGGSLRLSCAASGFTFSNYNMNWVRQAPGKGLEWISDINGSSRSIYYADFVKGRFTISRDNATNSLYLQMNSLRAEDTAVYYCVRSSYYGGGMDVWGRGTLVTVSS
VL: QSVLTQPASVSGSPGQSITISCAGTSSDVGGYNYVSWYQQHPGKAPKLMIYYDSYRPSGVSNRFSGSKSGNTASLTISGLQAEDEADYYCSSYTDYSTRVFGGGTKLAVLG
The term EC50 denotes the concentration at which the effect is half-maximal. Turning to B1, the decrease in Caspase-3/7 activity induced by 25 nM MIS (fold change relative to untreated cells) in assay [2] stood at 40%. In assay [3], the 50% effective concentration (EC50) was found to be 50.4 nM.
